According to patent publication US20230135471A1, “UBIQUITIN VARIANTS WITH IMPROVED AFFINITY FOR 53BP1” (Integrated DNA Technologies, Inc., priority 2021, published 2023):

The substances below were run against 53BP1 fragment (a.a. 1221-1718) fused to an adenylate cyclase fragment (two-hybrid) (UniProt Q12888) (assay: cell-based or functional assay).
Substance “i53 + R74V two-hybrid fusion (designed binder)” has an Experiment 1 Average Enrichment of 1.51 log2, an Experiment 1 Rep 1 Enrichment of 1.58 log2 and an Experiment 1 Rep 2 Enrichment of 1.44 log2. The Experiment 2 Average Enrichment was 0.95 log2, the Experiment 2 Rep 1 Enrichment was 1.19 log2 and the Experiment 2 Rep 2 Enrichment was 0.7 log2. “i53 + R54N two-hybrid fusion (designed binder)” gave an Experiment 1 Average Enrichment of 0.19 log2, an Experiment 1 Rep 1 Enrichment of -0.26 log2 and an Experiment 1 Rep 2 Enrichment of 0.65 log2. For the same substance, the Experiment 2 Average Enrichment was 0.01 log2, the Experiment 2 Rep 1 Enrichment was 0.03 log2 and the Experiment 2 Rep 2 Enrichment was -0.01 log2. Substance “i53 + E18N two-hybrid fusion (designed binder)” has an Experiment 1 Average Enrichment of -0.45 log2, an Experiment 1 Rep 1 Enrichment of 0.34 log2 and an Experiment 1 Rep 2 Enrichment of -1.23 log2. It also gave an Experiment 2 Average Enrichment of 0.1 log2, an Experiment 2 Rep 1 Enrichment of -0.64 log2 and an Experiment 2 Rep 2 Enrichment of 0.85 log2. Work on “i53 + P38V two-hybrid fusion (designed binder)” yielded an Experiment 1 Average Enrichment of 1.21 log2, an Experiment 1 Rep 1 Enrichment of 1.16 log2 and an Experiment 1 Rep 2 Enrichment of 1.26 log2. The Experiment 2 Average Enrichment was 0.05 log2, the Experiment 2 Rep 1 Enrichment was 0.38 log2 and the Experiment 2 Rep 2 Enrichment was -0.29 log2. For “i53 + S20C two-hybrid fusion (designed binder)”, the Experiment 1 Average Enrichment was -0.08 log2, the Experiment 1 Rep 1 Enrichment was -0.36 log2 and the Experiment 1 Rep 2 Enrichment was 0.2 log2. For the same substance, the Experiment 2 Average Enrichment was 0.05 log2, the Experiment 2 Rep 1 Enrichment was -0.1 log2 and the Experiment 2 Rep 2 Enrichment was 0.21 log2. For “i53 + T14H two-hybrid fusion (designed binder)”, the Experiment 1 Average Enrichment was 2.56 log2, the Experiment 1 Rep 1 Enrichment was 2.63 log2 and the Experiment 1 Rep 2 Enrichment was 2.5 log2. For the same substance, the Experiment 2 Average Enrichment was 1.65 log2, the Experiment 2 Rep 1 Enrichment was 1.47 log2 and the Experiment 2 Rep 2 Enrichment was 1.84 log2. For “i53 + Q31Y two-hybrid fusion (designed binder)”, the Experiment 1 Average Enrichment was 0.32 log2, the Experiment 1 Rep 1 Enrichment was 0.31 log2 and the Experiment 1 Rep 2 Enrichment was 0.34 log2. The Experiment 2 Average Enrichment was -0.05 log2, the Experiment 2 Rep 1 Enrichment was -0.26 log2 and the Experiment 2 Rep 2 Enrichment was 0.16 log2. “i53 + D32E two-hybrid fusion (designed binder)” gave an Experiment 1 Average Enrichment of 0.21 log2, an Experiment 1 Rep 1 Enrichment of 0.41 log2 and an Experiment 1 Rep 2 Enrichment of 0 log2. It also gave an Experiment 2 Average Enrichment of -0.19 log2, an Experiment 2 Rep 1 Enrichment of -0.11 log2 and an Experiment 2 Rep 2 Enrichment of -0.28 log2. With “i53 + T9E two-hybrid fusion (designed binder)” the Experiment 1 Average Enrichment was -0.04 log2, the Experiment 1 Rep 1 Enrichment was 0.37 log2 and the Experiment 1 Rep 2 Enrichment was -0.44 log2. For the same substance, the Experiment 2 Average Enrichment was 0.33 log2, the Experiment 2 Rep 1 Enrichment was 0.02 log2 and the Experiment 2 Rep 2 Enrichment was 0.63 log2. For “i53 + R74E two-hybrid fusion (designed binder)”, the Experiment 1 Average Enrichment was 0.38 log2, the Experiment 1 Rep 1 Enrichment was 0.53 log2 and the Experiment 1 Rep 2 Enrichment was 0.23 log2. The Experiment 2 Average Enrichment was -0.1 log2, the Experiment 2 Rep 1 Enrichment was 0.14 log2 and the Experiment 2 Rep 2 Enrichment was -0.35 log2. Substance “i53 + K33Q two-hybrid fusion (designed binder)” has an Experiment 1 Average Enrichment of 2.9 log2, an Experiment 1 Rep 1 Enrichment of 3.03 log2 and an Experiment 1 Rep 2 Enrichment of 2.77 log2. The Experiment 2 Average Enrichment was 1.48 log2, the Experiment 2 Rep 1 Enrichment was 1.96 log2 and the Experiment 2 Rep 2 Enrichment was 0.99 log2. “i53 + E18T two-hybrid fusion (designed binder)” gave an Experiment 1 Average Enrichment of -0.27 log2, an Experiment 1 Rep 1 Enrichment of -0.33 log2 and an Experiment 1 Rep 2 Enrichment of -0.21 log2. For the same substance, the Experiment 2 Average Enrichment was 0.28 log2, the Experiment 2 Rep 1 Enrichment was 0.23 log2 and the Experiment 2 Rep 2 Enrichment was 0.34 log2. Substance “i53 + K33V two-hybrid fusion (designed binder)” has an Experiment 1 Average Enrichment of 2.45 log2, an Experiment 1 Rep 1 Enrichment of 2.71 log2 and an Experiment 1 Rep 2 Enrichment of 2.19 log2. It also gave an Experiment 2 Average Enrichment of 1.75 log2, an Experiment 2 Rep 1 Enrichment of 2.03 log2 and an Experiment 2 Rep 2 Enrichment of 1.46 log2. Work on “i53 + H68M two-hybrid fusion (designed binder)” yielded an Experiment 1 Average Enrichment of 2.28 log2, an Experiment 1 Rep 1 Enrichment of 2.53 log2 and an Experiment 1 Rep 2 Enrichment of 2.04 log2. The Experiment 2 Average Enrichment was 1.28 log2, the Experiment 2 Rep 1 Enrichment was 0.99 log2 and the Experiment 2 Rep 2 Enrichment was 1.58 log2. It also gave a Percent GFP Positive Rep 1 of 28.6%, a Percent GFP Positive Rep 2 of 23.5% and a Percent GFP Positive Rep 3 of 28.3%. “i53 + M1Q two-hybrid fusion (designed binder)” was tested, and the Experiment 1 Average Enrichment was 1.31 log2, the Experiment 1 Rep 1 Enrichment was 1.23 log2 and the Experiment 1 Rep 2 Enrichment was 1.38 log2. For the same substance, the Experiment 2 Average Enrichment was 0.68 log2, the Experiment 2 Rep 1 Enrichment was 0.58 log2 and the Experiment 2 Rep 2 Enrichment was 0.79 log2. “i53 + P38T two-hybrid fusion (designed binder)” gave an Experiment 1 Average Enrichment of 0.11 log2, an Experiment 1 Rep 1 Enrichment of 0.95 log2 and an Experiment 1 Rep 2 Enrichment of -0.72 log2. For the same substance, the Experiment 2 Average Enrichment was 0.92 log2, the Experiment 2 Rep 1 Enrichment was 1.27 log2 and the Experiment 2 Rep 2 Enrichment was 0.58 log2. Work on “i53 + I13P two-hybrid fusion (designed binder)” yielded an Experiment 1 Average Enrichment of 0.58 log2, an Experiment 1 Rep 1 Enrichment of 2.15 log2 and an Experiment 1 Rep 2 Enrichment of -0.99 log2. For the same substance, the Experiment 2 Average Enrichment was -4.23 log2, the Experiment 2 Rep 1 Enrichment was -3.84 log2 and the Experiment 2 Rep 2 Enrichment was -4.62 log2. “i53 + S57D two-hybrid fusion (designed binder)” was tested, and the Experiment 1 Average Enrichment was 1.22 log2, the Experiment 1 Rep 1 Enrichment was 1.05 log2 and the Experiment 1 Rep 2 Enrichment was 1.39 log2. For the same substance, the Experiment 2 Average Enrichment was 0.86 log2, the Experiment 2 Rep 1 Enrichment was 0.89 log2 and the Experiment 2 Rep 2 Enrichment was 0.83 log2. Substance “i53 + E18Y two-hybrid fusion (designed binder)” has an Experiment 1 Average Enrichment of 0.72 log2, an Experiment 1 Rep 1 Enrichment of 1.28 log2 and an Experiment 1 Rep 2 Enrichment of 0.17 log2. The Experiment 2 Average Enrichment was 0.82 log2, the Experiment 2 Rep 1 Enrichment was 1.2 log2 and the Experiment 2 Rep 2 Enrichment was 0.44 log2. For “i53 + R74L two-hybrid fusion (designed binder)”, the Experiment 1 Average Enrichment was 1.11 log2, the Experiment 1 Rep 1 Enrichment was 1.35 log2 and the Experiment 1 Rep 2 Enrichment was 0.88 log2. For the same substance, the Experiment 2 Average Enrichment was 0.85 log2, the Experiment 2 Rep 1 Enrichment was 0.95 log2 and the Experiment 2 Rep 2 Enrichment was 0.76 log2. “i53 + N25Q two-hybrid fusion (designed binder)” gave an Experiment 1 Average Enrichment of 0.72 log2, an Experiment 1 Rep 1 Enrichment of 0.24 log2 and an Experiment 1 Rep 2 Enrichment of 1.21 log2. For the same substance, the Experiment 2 Average Enrichment was 0.18 log2, the Experiment 2 Rep 1 Enrichment was 0.15 log2 and the Experiment 2 Rep 2 Enrichment was 0.22 log2. In the case of “i53 + P38H two-hybrid fusion (designed binder)”, the Experiment 1 Average Enrichment was 0.26 log2, the Experiment 1 Rep 1 Enrichment was 0.87 log2 and the Experiment 1 Rep 2 Enrichment was -0.35 log2. For the same substance, the Experiment 2 Average Enrichment was 0.58 log2, the Experiment 2 Rep 1 Enrichment was 0.33 log2 and the Experiment 2 Rep 2 Enrichment was 0.83 log2. Substance “i53 + K63F two-hybrid fusion (designed binder)” has an Experiment 1 Average Enrichment of -0.02 log2, an Experiment 1 Rep 1 Enrichment of -0.01 log2 and an Experiment 1 Rep 2 Enrichment of -0.02 log2. The Experiment 2 Average Enrichment was 0.08 log2, the Experiment 2 Rep 1 Enrichment was -0.06 log2 and the Experiment 2 Rep 2 Enrichment was 0.22 log2. Work on “i53 + P38N two-hybrid fusion (designed binder)” yielded an Experiment 1 Average Enrichment of 1.02 log2, an Experiment 1 Rep 1 Enrichment of 2.28 log2 and an Experiment 1 Rep 2 Enrichment of -0.25 log2. The Experiment 2 Average Enrichment was -1.49 log2, the Experiment 2 Rep 1 Enrichment was -1.91 log2 and the Experiment 2 Rep 2 Enrichment was -1.07 log2. “i53 + A28Q two-hybrid fusion (designed binder)” gave an Experiment 1 Average Enrichment of 0.44 log2, an Experiment 1 Rep 1 Enrichment of 0.47 log2 and an Experiment 1 Rep 2 Enrichment of 0.42 log2. The Experiment 2 Average Enrichment was 0.14 log2, the Experiment 2 Rep 1 Enrichment was 0.59 log2 and the Experiment 2 Rep 2 Enrichment was -0.31 log2. “i53 + K29L two-hybrid fusion (designed binder)” showed an Experiment 1 Average Enrichment of 0.11 log2, an Experiment 1 Rep 1 Enrichment of 0.15 log2 and an Experiment 1 Rep 2 Enrichment of 0.07 log2. For the same substance, the Experiment 2 Average Enrichment was 0.26 log2, the Experiment 2 Rep 1 Enrichment was 0.21 log2 and the Experiment 2 Rep 2 Enrichment was 0.3 log2. Substance “i53 + P69R two-hybrid fusion (designed binder)” has an Experiment 1 Average Enrichment of -1.93 log2, an Experiment 1 Rep 1 Enrichment of -2.27 log2 and an Experiment 1 Rep 2 Enrichment of -1.59 log2. It also gave an Experiment 2 Average Enrichment of 0.75 log2, an Experiment 2 Rep 1 Enrichment of 0.2 log2 and an Experiment 2 Rep 2 Enrichment of 1.29 log2. “i53 + P38C two-hybrid fusion (designed binder)” was tested, and the Experiment 1 Average Enrichment was 1.52 log2, the Experiment 1 Rep 1 Enrichment was 1.21 log2 and the Experiment 1 Rep 2 Enrichment was 1.83 log2. The Experiment 2 Average Enrichment was 0.52 log2, the Experiment 2 Rep 1 Enrichment was 0.46 log2 and the Experiment 2 Rep 2 Enrichment was 0.57 log2. “i53 + K33F two-hybrid fusion (designed binder)” gave an Experiment 1 Average Enrichment of 1.77 log2, an Experiment 1 Rep 1 Enrichment of 1.91 log2 and an Experiment 1 Rep 2 Enrichment of 1.62 log2. It also gave an Experiment 2 Average Enrichment of 1.02 log2, an Experiment 2 Rep 1 Enrichment of 1.16 log2 and an Experiment 2 Rep 2 Enrichment of 0.87 log2. In the case of “i53 + R74K two-hybrid fusion (designed binder)”, the Experiment 1 Average Enrichment was 0.12 log2, the Experiment 1 Rep 1 Enrichment was 0.04 log2 and the Experiment 1 Rep 2 Enrichment was 0.21 log2. The Experiment 2 Average Enrichment was 0.13 log2, the Experiment 2 Rep 1 Enrichment was 0.1 log2 and the Experiment 2 Rep 2 Enrichment was 0.17 log2. Substance “i53 + V17C two-hybrid fusion (designed binder)” has an Experiment 1 Average Enrichment of -1.08 log2, an Experiment 1 Rep 1 Enrichment of -2.27 log2 and an Experiment 1 Rep 2 Enrichment of 0.12 log2. It also gave an Experiment 2 Average Enrichment of 0.19 log2, an Experiment 2 Rep 1 Enrichment of 0.6 log2 and an Experiment 2 Rep 2 Enrichment of -0.23 log2. In the case of “i53 + S20A two-hybrid fusion (designed binder)”, the Experiment 1 Average Enrichment was 0.14 log2, the Experiment 1 Rep 1 Enrichment was 0.3 log2 and the Experiment 1 Rep 2 Enrichment was -0.02 log2. The Experiment 2 Average Enrichment was -0.26 log2, the Experiment 2 Rep 1 Enrichment was -0.26 log2 and the Experiment 2 Rep 2 Enrichment was -0.25 log2. “i53 + K33I two-hybrid fusion (designed binder)” showed an Experiment 1 Average Enrichment of 2.03 log2, an Experiment 1 Rep 1 Enrichment of 1.91 log2 and an Experiment 1 Rep 2 Enrichment of 2.14 log2. The Experiment 2 Average Enrichment was 0.91 log2, the Experiment 2 Rep 1 Enrichment was 1.32 log2 and the Experiment 2 Rep 2 Enrichment was 0.5 log2. With “i53 + M1I two-hybrid fusion (designed binder)” the Experiment 1 Average Enrichment was 0.06 log2, the Experiment 1 Rep 1 Enrichment was 0.11 log2 and the Experiment 1 Rep 2 Enrichment was 0.01 log2. It also gave an Experiment 2 Average Enrichment of 0 log2, an Experiment 2 Rep 1 Enrichment of -0.18 log2 and an Experiment 2 Rep 2 Enrichment of 0.19 log2. In the case of “i53 + S65N two-hybrid fusion (designed binder)”, the Experiment 1 Average Enrichment was 0.38 log2, the Experiment 1 Rep 1 Enrichment was 0.04 log2 and the Experiment 1 Rep 2 Enrichment was 0.71 log2. The Experiment 2 Average Enrichment was 0.34 log2, the Experiment 2 Rep 1 Enrichment was 0.71 log2 and the Experiment 2 Rep 2 Enrichment was -0.04 log2. Work on “i53 + T55R two-hybrid fusion (designed binder)” yielded an Experiment 1 Average Enrichment of -0.06 log2, an Experiment 1 Rep 1 Enrichment of 0.11 log2 and an Experiment 1 Rep 2 Enrichment of -0.22 log2. It also gave an Experiment 2 Average Enrichment of 0.12 log2, an Experiment 2 Rep 1 Enrichment of 0.19 log2 and an Experiment 2 Rep 2 Enrichment of 0.05 log2.
